Molecular target: SARS-CoV-2 nsp12 (RNA-dependent RNA polymerase) (SARS-CoV-2, UniProt P0DTD1)
Assay: cryo-EM structure

B1: SARS-CoV-2 nsp9 (full-length, residues N1–Q113) (natural protein)
chain: NNELSPVALRQMSCAAGTTQTACTDDNALAYYNTTKGGRFVLALLSDLQDLKWARFPKSDGTGTIYTELEPPCRFVTDTPKGPKVKYLYFIKGLNNLNRGMVLGSLAATVRLQ
Does B1 bind?
Result: binds

— article PMC7666536 (Cell, 2020)
